Legend:
[1] = target: the molecule itself; assay: AUC; absorption sedimentation equilibrium at 37°C; 1 to 60 µM (monomer equivalents); 14'000, 17'000 and 26'000 rpm; buffer as for velocity runs but without BSA; dimer to monomers
[2] = target: the molecule itself; assay: AUC; fluorescence sedimentation velocity (GFP signal at 488 nm), 22°C; dilution series from about 500 to about 0.5 nM (monomer equivalents); 20 mM Tris-HCl pH 7.5, 300 mM NaCl, 0.2 mg/ml BSA, 2 mM DTT or 0.1 mM TCEP; samples incubated 16 hours at 22°C; dimer to monomers; apparent Kd
[3] = target: the molecule itself; assay: SEC-MALS; Superdex 200 10/30 with in-line multi-angle light scattering; 1 to 4 mg/ml injected in 100 µl (about 1 µM at the peak); 20 mM Tris-HCl pH 7.5, 300 mM NaCl, 2 mM DTT; room temperature; single experiments

B1: EB1c-GFP (C-terminal domain of human EB1, Asp191-Tyr268, C-terminally EGFP-His-tagged) (domain or fragment, UniProt Q15691 191-268, looked up)
chain: DEAAELMQQVNVLKLTVEDLEKERDFYFGKLRNIELICQENEGENDPVLQRIVDILYATDEGFVIPDEGGPQEEQEEY
notes: Calculated monomer mass 38.3 kDa; also called C-terminal domain of EB1; not shown: EGFP, C-terminal, kept
stoichiometry N [1]: 2

B2: EB1c-GFP[A206K] (domain or fragment, human, UniProt Q15691 191-268, looked up)
chain: DEAAELMQQVNVLKLTVEDLEKERDFYFGKLRNIELICQENEGENDPVLQRIVDILYATDEGFVIPDEGGPQEEQEEY
notes: As m3, but Ala206 of the EGFP tag is mutated to lysine; the EB1c part is unchanged; not shown: EGFP with A206K, C-terminal, kept
stoichiometry N [2]: 2

B3: EB3c-GFP (C-terminal domain of human EB3, Ala200-Tyr281, C-terminally EGFP-His-tagged) (domain or fragment, UniProt Q9UPY8 200-281, looked up)
chain: AQILELNQQLVDLKLTVDGLEKERDFYFSKLRDIELICQEHESENSPVISGIIGILYATEEGFAPPEDDEIEEHQQEDQDEY
notes: Calculated monomer mass 38.7 kDa; also called C-terminal domain of EB3; not shown: EGFP, C-terminal, kept
stoichiometry N [3]: 2 | Kd [2]: 2 nM
